58 substances from the supplement of paper PMC12042874 can be followed below.

± gives the uncertainty stated by the source.

This data set in a line: amyloid nucleation score (Sup35N fusion, yeast selection) (log enrichment); library NNK1; higher = more nucleation; inactive = no reads after selection. The method in brief:
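For the nucleation score, DiMSum gave the log enrichment of output over input reads, centred on the mode score of non-aggregating sequences. Psi-negative yeast expressing Sup35N fused to peptides of 20 random codons were induced with 100 μM copper sulfate for 24 hours and grown 7 days at 30°C on medium lacking adenine and uracil. Input and output plasmid inserts were Illumina-sequenced, and sequences with under 100 input reads were excluded.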

Regarding ITPDVGSGTFEV, the amyloid nucleation score is 0.022 ± 1.1. In turn, LGCFGIAATKIRKVDMRLGG came in with an amyloid nucleation score of 0.729 ± 0.39. Substance LVLQRDIGSACVDCHGVGKA showed an amyloid nucleation score of 1.17 ± 0.52. The value for STLYLLHGRNSHTGRSFSRH was -1.01 ± 0.66. The value for NAVTFLHIVLRENNHGRMHK was 6.21 ± 0.073.

LRMNLSRKPANFCFKCIIGK: the amyloid nucleation score is -0.348 ± 0.5. As for FSSCLTMRLV, the amyloid nucleation score was -0.365 ± 1.6.

Turning to RMDFIHISTAIFSKEVDSRR, the amyloid nucleation score came to 1.04 ± 0.47. The value for VHSCYLVLARQWNVIKISHI was 0.039 ± 0.43; that for ENDVNDLRSPLDNQYLSRLP was “inactive”; that for FLVYGSSGFTAVLGPQCEEG was -0.777 ± 1.4. To WGWHNYWDGSVVVWRSATAH belongs -0.414 ± 0.75. The value for RIELLWRKVSGKCLVQDFDI was 0.117 ± 0.47. Take LVELNIGTTLCWQMRLRNVG: the amyloid nucleation score was -0.037 ± 1.7. To SRYSLTCRVLTWLPDNLVRR belongs 0.07 ± 0.42; to CLATLSMSYLLFVSGLRRIK, -0.554 ± 0.59; to TLVTEESWMSLLSVNIAQ, -0.378 ± 0.59. For KYLVLHILHIWMCHRYVWGM, the amyloid nucleation score is -0.973 ± 0.6. The value for FVNFGFAGIASWHFVLMFIK was 0.1 ± 0.27; that for RRTLEAFICL was -0.312 ± 0.84; that for NVIGSGE was 1.08 ± 0.51. CVYGIGVYR yielded an amyloid nucleation score of -0.84 ± 0.95. To SLMRPCKCNAYCMIELITLY belongs “inactive”; to VAGWRPFILLGGPRLNTVRQ, 0.407 ± 0.67. RLRLIFTCMR: the amyloid nucleation score turned out to be 3.08 ± 0.11. To VESLDKIPMR belongs 0.173 ± 0.73; to KCFRYCKKNSNWLDCRLQIW, -1.26 ± 2.1.

Turning to SSCSPHLLFGLASVGV, the amyloid nucleation score amounted to 0.39 ± 0.53. The value for SVGSLRRFSDFIYWNVVLNM was -0.3 ± 0.58. To MSALTGQKPLVMVGGLCAVG belongs 0.449 ± 0.55.

In turn, YCVQFVRLMLKKNGRGYNYR had an amyloid nucleation score of -0.762 ± 1.1. YSIFTIKGRDCKLFITNNVS came in with an amyloid nucleation score of 7.468 ± 0.045. The value for RLYIHHVIHVDKYNFGVYPP was 0.245 ± 0.32; that for NSPGYDQVNAYVGFKRRTMS was 0.128 ± 0.64; that for TTFGRPSTPH was -0.393 ± 0.38. To KKVSLRLSSAVILSANSAML belongs -0.258 ± 0.54; to LNGIFNNPY, -0.512 ± 0.78. The value for ILKRSCEVVL was -0.243 ± 0.47; that for IYVYVLSMMCPSEDR was 0.201 ± 0.84; that for IASECWET was -0.391 ± 0.52. On to HGGKCLSMRYRDCALWTFQG, for which the amyloid nucleation score came out at 0.031 ± 1.2. To SDVEEGLRL belongs 1.08 ± 0.57; to WPIRVMMGYRLLGMDRNVFG, 0.129 ± 0.68; to SCLWSSCCVV, 0.171 ± 0.44. The value for CSILYAAPKIRQSARFLMLS was 0.451 ± 0.32. The value for LGKPVWVQEAKLDADNLWCV was -0.438 ± 0.49. Consider TTWER, for which the amyloid nucleation score came to 0.496 ± 1.2.

Take HANCG: the amyloid nucleation score is -0.155 ± 0.59. For HPMITRFLAD, the amyloid nucleation score is 0.413 ± 1.4.

VSVMFYPFVFHWYGCLLTSA had an amyloid nucleation score of 2.96 ± 0.12.

Turning to RRGTSFLQIYLACSHVQTSH, the amyloid nucleation score is 4.56 ± 0.11.

The substance FGHKPCLATQLTGPTKRCAA displayed an amyloid nucleation score of 0.959 ± 1.1. The value for VPIVGDLEKVMGCYSYWANK was -0.011 ± 0.18; that for DPVVFDSWELLKQWISCKRC was 0.226 ± 1.6. To AYHNDWR belongs -0.85 ± 0.76; to NPRPH, -0.601 ± 0.62; to RSESNVMS, 0.397 ± 0.71. In turn, ITPYQQFWLIVDTIGNMMEI came in with an amyloid nucleation score of 2.07 ± 0.2.
